Results on seven molecules are retold here after patent publication US20240391997A1 (BRIGHTPATH BIOTHERAPEUTICS, published 2024).

The target in experiment [1] is T1, biotinylated human Tim-3-Fc antigen (in-house preparation) (human, biotinylated).
T1 construct: limits of the Tim-3 part not given
In words: competition ELISA, biotinylated Tim-3-Fc premixed with antibody, binding to coated human Galectin-9. In general terms: ELISA stands for enzyme-linked immunosorbent assay.

The target in experiment [2] is T2, human Tim-3 expressed on cells (Jurkat cells stably expressing, Expi293 cells transiently expressing, … (human, UniProt Q8TDQ0 22-301)).
T2 construct: whole, on cells; One entry for all cell-surface forms; the cell type is named under assay; also called human Tim-3 expressed on the cell membrane
In words: flow cytometry on Jurkat cells stably expressing human Tim-3, KD from MFI curve. On the technique in general: In flow cytometry, cells or beads pass a laser one at a time.

In experiment [3] the target is T2, human Tim-3 expressed on cells (Jurkat …). In words: flow cytometry on activated human CD4 T cells, KD from MFI curve.
For experiment [4], the target named is T1, biotinylated human Tim-3-Fc antigen …. In words: competition ELISA, biotinylated Tim-3-Fc premixed with antibody, binding to coated human Galectin-9. This is another data set of the same source.
The target is the same in experiment [5]. In words: competition flow cytometry, biotinylated Tim-3-Fc premixed with antibody, binding to phosphatidylserine on apoptotic Jurkat cells (ligand not a protein).
Experiment [6] concerns the target T2, human Tim-3 expressed on cells (Jurkat …). In words: flow cytometry on Expi293 cells transiently expressing human Tim-3, KD from MFI curve.
Experiment [7] shares this target. In words: flow cytometry on activated human CD8 T cells, KD from MFI curve.
Experiment [8] has as its target T1, biotinylated human Tim-3-Fc antigen …. In words: competition ELISA: biotinylated human Tim-3-Fc premixed with the antibody, added to plate-bound human Galectin-9 (blocked ligand); streptavidin-HRP; Binding (%).
Experiment [9] has the same target. In words: competition flow cytometry, biotinylated Tim-3-Fc premixed with antibody, binding to phosphatidylserine on apoptotic Jurkat cells (ligand not a protein). This is another data set of the same source.
Experiment [10] has as its target T2, human Tim-3 expressed on cells (Jurkat …). In words: flow cytometry on Expi293 cells transiently expressing human Tim-3, KD from MFI curve. This is another data set of the same source.
Experiment [11] concerns the target T1, biotinylated human Tim-3-Fc antigen …. In words: competition ELISA, biotinylated Tim-3-Fc premixed with antibody, binding to coated human Galectin-9. This is another data set of the same source.
Experiment [12] shares this target. In words: competition flow cytometry, biotinylated Tim-3-Fc premixed with antibody, binding to phosphatidylserine on apoptotic Jurkat cells (ligand not a protein). The source holds these as a separate data set.
The target in experiment [13] is T2, human Tim-3 expressed on cells (Jurkat …). In words: flow cytometry on Jurkat cells stably expressing human Tim-3, KD from MFI curve. This is another data set of the same source.
Experiment [14] has the same target. In words: flow cytometry on activated human CD8 T cells, KD from MFI curve. The source holds these as a separate data set.
Experiment [15] has the same target. In words: flow cytometry on activated human CD4 T cells, KD from MFI curve. The source holds these as a separate data set.

Some results are limits rather than exact numbers.

B1: Ch428003ct antibody (bispecific antibody, not shown: a dimerising Fc or GST)
scFv 1: EVMLMESGGGLVKLGGSLKLSCAASGFTFSSYYMSWVRQTPEKRLEWVATISNSGGSIYYLDSVKDRFTISRDNAKNTLYLQMSSLNSEDTAVYYCARDPYYSNYVPMDYWGQGTSVTVSSGGGGSGGGGSGGGGSGGGGSSIVMTQTPKFMSTSVGDRVSVTCKASQYVDTYVAWYQQKPGQSPKPLIYSASTRHTGVPARFTGSGSGTDFTLTISNVQSEDLAEYFCAQYSSSPLTFGAGTKLELK
scFv 2: QVQLQQSGPELVKPGDSVKMSCKASGYTFTDYYMDWVKQSHGKSLEWIGYIYPNNGGTSYNQKFKGKATLTVDKSSSTAYMELHSLTSEDSAVYYCARGGYYSYYSYDYWGQGTTLTVSSGGGGSGGGGSGGGGSGGGGSSIVMTQTPKFLPVSAGDRVTMTCKASQSVGNNVAWYQQKPGQSPKLLIYYASNRYTGVPDRFTGSGSGTDFTFTISSVQVEDLAVYFCQQHYSSPYTFGTGTKLEIK
Usually IC50 stands for the concentration that inhibits the measured activity by half. Low values mean greater potency, high ones weaker potency. Usually Kd stands for the free concentration of one partner at which half of the binding sites on the other are occupied at equilibrium, for simple one-to-one binding. Higher therefore signals weaker binding. As for B1, the 50% inhibitory concentration (IC50) is 454 pM in experiment [1] and 12800 pM in experiment [5]. For the same molecule, the dissociation constant Kd in [2] was determined as 194 pM; in [3], 218 pM; in experiment [6], 1370 pM. For the same molecule, the “inhibition of the binding between human Tim-3 and human Galectin-9” value (shortened to “inhibition”) in [4] is at least 90%.

B2: Ch149003ct antibody (bispecific antibody, not shown: a dimerising Fc or GST)
scFv 1: EVMLMESGGGLVKLGGSLKLSCAASGFTFSSYYMSWVRQTPEKRLEWVATISNSGGSIYYLDSVKDRFTISRDNAKNTLYLQMSSLNSEDTAVYYCARDPYYSNYVPMDYWGQGTSVTVSSGGGGSGGGGSGGGGSGGGGSSIVMTQTPKFMSTSVGDRVSVTCKASQYVDTYVAWYQQKPGQSPKPLIYSASTRHTGVPARFTGSGSGTDFTLTISNVQSEDLAEYFCAQYSSSPLTFGAGTKLELK
scFv 2: QVQLQQSGPERVKPGDSVKMSCKASGYTFTDYYMDWVKQSHGKSLEWIGYIYPNNGGTSYNQKFKGKATLTVDKSSSTAYMELHSLTSEDSAVYYCARSGYGNYYTMDYWGQGTSVTVSAGGGGSGGGGSGGGGSGGGGSSIVMTQTPKFMPVSAGDRVTMTCKASQSVGNNVAWYQQKPGQSPKLLIYYASNRYTGVPDRFTGSGSGTDFTFTISSVQVEDLAVYFCQQHYSSPSTFGTGTKLEIK
B2: the results for the IC50 in experiment [1] and in [5] were 589 pM and 22900 pM, respectively. The Kd in experiment [7] was found to be 558 pM; in experiment [2] it was 404 pM; in [3], 508 pM; in experiment [6] it was 2170 pM. The “inhibition” value in experiment [4] is at least 90%.

B3: Ch621003ct antibody (bispecific antibody, not shown: a dimerising Fc or GST)
scFv 1: EVMLMESGGGLVKLGGSLKLSCAASGFTFSSYYMSWVRQTPEKRLEWVATISNSGGSIYYLDSVKDRFTISRDNAKNTLYLQMSSLNSEDTAVYYCARDPYYSNYVPMDYWGQGTSVTVSSGGGGSGGGGSGGGGSGGGGSSIVMTQTPKFMSTSVGDRVSVTCKASQYVDTYVAWYQQKPGQSPKPLIYSASTRHTGVPARFTGSGSGTDFTLTISNVQSEDLAEYFCAQYSSSPLTFGAGTKLELK
scFv 2: QIQLQQSGPELVKPGDSVKMSCKASGYTFTDYYMDWVKQSHGKSLEWIGYIYPNNGGTSYNQKFKGKATLTVDKSSSTAYMELHSLTSEDSAVYYCARSGYKAYYAMDYWGQGTTLTVSSGGGGSGGGGSGGGGSGGGGSSIVMTQTPKFLPVSAGDRVTMTCKASQSVGNNVAWYQQKPGQSPKLLIYYASNRYTGVPDRFTGSGSGTDFTFTISSVQVEDLAVYFCQQHYSSPYTFGSGTKLEIK
Turning to B3, the concentration for half-maximal inhibition (IC50) was 751 pM in experiment [1] and 16300 pM in experiment [5]. Besides, the Kd in experiment [7] stood at 308 pM; in [2] it was 256 pM; in experiment [3], 287 pM; in experiment [6], 1820 pM. Besides, in experiment [4], the “inhibition” value is at least 90%.

B4: Hu003_13_F20_LA antibody (antibody, V domains shown)
VH: QVQLQESGGGLVKPGGSLKLSCAASGFTFSSYYMSWVRQTPDKRLEWVATISNSGGSTYYPDSVKDRFTISRDNAKNTLYLQMSSLKSEDTAMYYCARDPYYTNYVPMDYWGQGTMVTVSS
VL: DIVMTQSPSFLSASVGDRVTITCKASQYVDTYVAWYQQRPGKAPKPLIYSASTRHTGVPSRFSGSGSGTEFTLTISSLQPEDFATYFCAQYSSSPLTFGGGTKLELK
Regarding B4, the “IC50 (read off the curve)” value in experiment [8] is about 500 pM. In [9], the IC50 was 10700 pM.

B5: Hu621003ct antibody (bispecific antibody, not shown: a dimerising Fc or GST)
scFv 1: QVQLQESGGGLVKPGGSLKLSCAASGFTFSSYYMSWVRQTPDKRLEWVATISNSGGSTYYPDSVKDRFTISRDNAKNTLYLQMSSLKSEDTAMYYCARDPYYTNYVPMDYWGQGTMVTVSSGGGGSGGGGSGGGGSGGGGSDIVMTQSPSFLSASVGDRVTITCKASQYVDTYVAWYQQRPGKAPKPLIYSASTRHTGVPSRFSGSGSGTEFTLTISSLQPEDFATYFCAQYSSSPLTFGGGTKLELK
scFv 2: QVQLVQSGAEVKKPGASVKVSCKASGYTFTDYYMDWVRQAPGQGLEWLGYIYPNKGGTSYNQKFKGRVTMTTDKSTSTAYMELRSLRSDDTAVYYCARSGYKAYYAMDYWGQGTTVTVSSGGGGSGGGGSGGGGSGGGGSDIVMTQSQKFMSTSVGDRVSITCKASQSVGNNVAWYQQKPGQSPKLLIYYASNRYTGVPDRFTGSGSGTDFTLTISNMQSEDLADYFCQQHYSSPYTFGGGTKLEIK
B5: the figures for the Kd in experiment [10] and in [13] were 2270 pM and 283 pM, respectively. Further, the 50% inhibitory concentration (IC50) in [11] was 819 pM; in experiment [12], 32300 pM. Also, in experiment [4], the “inhibition” value was at least 90%.

B6: Hu428003ct antibody (bispecific antibody, not shown: a dimerising Fc or GST)
scFv 1: QVQLQESGGGLVKPGGSLKLSCAASGFTFSSYYMSWVRQTPDKRLEWVATISNSGGSTYYPDSVKDRFTISRDNAKNTLYLQMSSLKSEDTAMYYCARDPYYTNYVPMDYWGQGTMVTVSSGGGGSGGGGSGGGGSGGGGSDIVMTQSPSFLSASVGDRVTITCKASQYVDTYVAWYQQRPGKAPKPLIYSASTRHTGVPSRFSGSGSGTEFTLTISSLQPEDFATYFCAQYSSSPLTFGGGTKLELK
scFv 2: QVQLVQSGAEVKKPGASVKVSCKASGYTFTDYYMDWVRQAPGQGLEWLGYIYPNKGGTSYNQKFKGRVTMTTDKSTSTAYMELRSLRSDDTAVYYCARGGYYSYYSYDYWGQGTTVTVSSGGGGSGGGGSGGGGSGGGGSDIVMTQSQKFMSTSVGDRVSITCKASQSVGNNVAWYQQKPGQSPKLLIYYASNRYTGVPDRFTGSGSGTDFTLTISNMQSEDLADYFCQQHYSSPYTFGGGTKLEIK
On to B6, for which the Kd in experiment [10] turned out to be 2300 pM; in experiment [14], 263 pM; in [15] it was 279 pM; in [13], 232 pM. Further, the results for the IC50 in experiment [11] and in [12] were 712 pM and 27300 pM, respectively. For the same molecule, the “inhibition” value in experiment [4] is at least 90%.

B7: Hu149003ct antibody (bispecific antibody, not shown: a dimerising Fc or GST)
scFv 1: QVQLQESGGGLVKPGGSLKLSCAASGFTFSSYYMSWVRQTPDKRLEWVATISNSGGSTYYPDSVKDRFTISRDNAKNTLYLQMSSLKSEDTAMYYCARDPYYTNYVPMDYWGQGTMVTVSSGGGGSGGGGSGGGGSGGGGSDIVMTQSPSFLSASVGDRVTITCKASQYVDTYVAWYQQRPGKAPKPLIYSASTRHTGVPSRFSGSGSGTEFTLTISSLQPEDFATYFCAQYSSSPLTFGGGTKLELK
scFv 2: QVQLVQSGAEVKKPGASVKVSCKASGYTFTDYYMDWVRQAPGQGLEWLGYIYPNKGGTSYNQKFKGRVTMTTDKSTSTAYMELRSLRSDDTAVYYCARSGYGNYYTMDYWGQGTTVTVSSGGGGSGGGGSGGGGSGGGGSDIVMTQSQKFMSTSVGDRVSITCKASQSVGNNVAWYQQKPGQSPKLLIYYASNRYTGVPDRFTGSGSGTDFTLTISNMQSEDLADYFCQQHYSSPSTFGGGTKLEIK
B7: the Kd in experiment [10] stood at 4160 pM; in experiment [14] it was 970 pM; in experiment [15], 917 pM; in experiment [13], 904 pM. The IC50 was 1120 pM in [11] and 32300 pM in [12]. In addition, the “inhibition” value in experiment [4] was at least 90%.
